Assay results: paper PMC9634978 (Molecular Biology of the Cell, 2022)

T1: his6-Sec18 (S. cerevisiae, UniProt P18759 1-758)
T1 sequence (looked up): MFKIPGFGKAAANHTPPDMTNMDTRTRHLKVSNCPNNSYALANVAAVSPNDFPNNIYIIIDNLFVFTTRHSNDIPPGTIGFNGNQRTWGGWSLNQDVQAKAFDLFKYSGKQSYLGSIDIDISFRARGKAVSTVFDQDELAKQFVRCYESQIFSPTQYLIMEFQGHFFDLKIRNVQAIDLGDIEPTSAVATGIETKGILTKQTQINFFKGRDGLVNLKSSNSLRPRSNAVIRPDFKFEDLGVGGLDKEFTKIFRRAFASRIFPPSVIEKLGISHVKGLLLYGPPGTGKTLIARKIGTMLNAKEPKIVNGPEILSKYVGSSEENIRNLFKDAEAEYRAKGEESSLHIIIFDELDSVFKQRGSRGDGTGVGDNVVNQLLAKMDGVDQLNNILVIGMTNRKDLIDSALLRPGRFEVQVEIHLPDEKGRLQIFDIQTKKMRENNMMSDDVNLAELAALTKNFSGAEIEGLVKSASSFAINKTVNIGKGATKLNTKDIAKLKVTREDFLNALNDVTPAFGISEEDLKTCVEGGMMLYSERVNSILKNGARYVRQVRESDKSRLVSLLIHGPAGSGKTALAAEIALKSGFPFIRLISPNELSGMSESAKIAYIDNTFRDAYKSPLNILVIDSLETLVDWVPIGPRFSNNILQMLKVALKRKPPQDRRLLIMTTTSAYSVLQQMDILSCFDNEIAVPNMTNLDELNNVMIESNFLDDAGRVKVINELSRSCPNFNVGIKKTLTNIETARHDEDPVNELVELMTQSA


Tests used:
his6-Sec18 [1] = biological target: T1, his6-Sec18; test: liposome co-floatation
his6-Sec18 [2] = biological target: T1, his6-Sec18; test: liposome co-floatation; remark: listed apart in the source

| binding result (his6-Sec18 [1]) | stoichiometry N (his6-Sec18 [2]) | Binder |
| --- | --- | --- |
| binds |  | Sec17-K159EK163E (natural protein, S. cerevisiae, UniProt P32602 1-292, looked up) MSDPVELLKRAEKKGVPSSGFMKLFSGSDSYKFEEAADLCVQAATIYRLRKELNLAGDSFLKAADYQKKAGNEDEAGNTYVEAYKCFKSGGNSVNAVDSLENAIQIFTHRGQFRRGANFKFELGEILENDLHDYAKAIDCYELAGEWYAQDQSVALSNECFIECADLKALDGQYIEASDIYSKLIKSSMGNRLSQWSLKDYFLKKGLCQLAATDAVAAARTLQEGQSEDPNFADSRESNFLKSLIDAVNEGDSEQLSEHCKEFDNFMRLDKWKITILNKIKESIQQQEDDLL |
|  | ~3 mol Sec17 per mol Sec18 hexamer | his6-Sec17 (natural protein, S. cerevisiae, UniProt P32602 1-292, looked up) MSDPVELLKRAEKKGVPSSGFMKLFSGSDSYKFEEAADLCVQAATIYRLRKELNLAGDSFLKAADYQKKAGNEDEAGNTYVEAYKCFKSGGNSVNAVDSLENAIQIFTHRGQFRRGANFKFELGEILENDLHDYAKAIDCYELAGEWYAQDQSVALSNKCFIKCADLKALDGQYIEASDIYSKLIKSSMGNRLSQWSLKDYFLKKGLCQLAATDAVAAARTLQEGQSEDPNFADSRESNFLKSLIDAVNEGDSEQLSEHCKEFDNFMRLDKWKITILNKIKESIQQQEDDLL |
